Assay results taken from article PMC6155276.

Molecular target: Mycobacterium tuberculosis type-I fatty acid synthase (FAS-I) (Mycobacterium tuberculosis)
Assay: […] (100 mM potassium phosphate pH 7.2, 150 mM KCl, 1 mM TCEP, 1 mM EDTA) […]

Mycobacterium tuberculosis type-I fatty acid synthase (FAS-I) (enzyme)
stoichiometry N: 6
